Experimental data from patent US11346848B2, “Γ-secretase stabilizing compound screening assay” (VIB VZW, priority 2017, dated 2022).

How the values were obtained:
[1] = tested on: γ-secretase; settings: Chávez-Gutiérrez et al., 2012; Funamoto et al., 2013; read-out: Km (substrate affinity constant); cited from earlier work
[2] = tested on: CC[C@H](C)[C@H](NC(=O)[C@@H](NC(=O)[C@@H](NC(=O)[C@H](C)NC(=O)[C@@H](NC(=O)[C@@H](NC(=O)[C@@H](NC(=O)CNC(=O)CNC(=O)[C@@H](NC(=O)[C@H](CCSC)NC(=O)[C@H](CC(C)C)NC(=O)CNC(=O)[C@@H](NC(=O)[C@@H](NC(=O)[C@H](C)NC(=O)CNC(=O)[C@H](CCCCN)NC(=O)[C@H](CC(N)=O)NC(=O)[C@H](CO)NC(=O)CNC(=O)[C@@H](NC(=O)[C@H](CC(=O)O)NC(=O)[C@H](CCC(=O)O)NC(=O)[C@H](C)NC(=O)[C@H](Cc1ccccc1)NC(=O)[C@H](Cc1ccccc1)NC(=O)[C@@H](NC(=O)[C@H](CC(C)C)NC(=O)[C@H](CCCCN)NC(=O)[C@H](CCC(N)=O)NC(=O)[C@H](Cc1c[nH]cn1)NC(=O)[C@H](Cc1c[nH]cn1)NC(=O)[C@@H](NC(=O)[C@H](CCC(=O)O)NC(=O)[C@H](Cc1ccc(O)cc1)NC(=O)CNC(=O)[C@H](CO)NC(=O)[C@H](CC(=O)O)NC(=O)[C@H](Cc1c[nH]cn1)NC(=O)[C@H](CCCNC(=N)N)NC(=O)[C@H](Cc1ccccc1)NC(=O)[C@H](CCC(=O)O)NC(=O)[C@H](C)NC(=O)[C@@H](N)CC(=O)O)C(C)C)C(C)C)C(C)C)[C@@H](C)CC)[C@@H](C)CC)C(C)C)C(C)C)C(C)C)[C@@H](C)CC)[C@@H](C)O)C(C)C)C(=O)O; assay: purified protein, by the assay type
[3] = tested on: CC[C@H](C)[C@H](NC(=O)[C@H](C)NC(=O)CNC(=O)[C@H](CCCCN)NC(=O)[C@H](CC(N)=O)NC(=O)[C@H](CO)NC(=O)CNC(=O)[C@@H](NC(=O)[C@H](CC(=O)O)NC(=O)[C@H](CCC(=O)O)NC(=O)[C@H](C)NC(=O)[C@H](Cc1ccccc1)NC(=O)[C@H](Cc1ccccc1)NC(=O)[C@@H](NC(=O)[C@H](CC(C)C)NC(=O)[C@H](CCCCN)NC(=O)[C@H](CCC(N)=O)NC(=O)[C@H](Cc1c[nH]cn1)NC(=O)[C@H](Cc1c[nH]cn1)NC(=O)[C@@H](NC(=O)[C@H](CCC(=O)O)NC(=O)[C@H](Cc1ccc(O)cc1)NC(=O)CNC(=O)[C@H](CO)NC(=O)[C@H](CC(=O)O)NC(=O)[C@H](Cc1c[nH]cn1)NC(=O)[C@H](CCCNC(=N)N)NC(=O)[C@H](Cc1ccccc1)NC(=O)[C@H](CCC(=O)O)NC(=O)[C@H](C)NC(=O)[C@@H](N)CC(=O)O)C(C)C)C(C)C)C(C)C)C(=O)N[C@H](C(=O)NCC(=O)N[C@@H](CC(C)C)C(=O)N[C@@H](CCSC)C(=O)N[C@H](C(=O)NCC(=O)NCC(=O)N[C@H](C(=O)N[C@H](C(=O)N[C@H](C(=O)N[C@@H](C)C(=O)N[C@H](C(=O)N[C@H](C(=O)N[C@H](C(=O)N[C@H](C(=O)O)C(C)C)[C@@H](C)CC)C(C)C)[C@@H](C)O)[C@@H](C)CC)C(C)C)C(C)C)C(C)C)[C@@H](C)CC; assay: purified protein, by the assay type

Substance: APP-C99: human Amyloid beta precursor protein C99 fragment (99 aa), natural γ-secretase substrate
- Km [1]: 0.4 to 0.8 µM

Substance: wild type human γ-secretase (PSEN1/APH1a) (Homo sapiens)
- Km ([2]; other: 37° C., 37.0 °C): 2.9 µM
- Vmax ([2]; other: 37° C., 37.0 °C): 545.2 nM/h
- Km ([2]; other: 45° C., […]): 1.7 µM
- Vmax ([2]; other: 45° C., […]): 274.3 nM/h
- Km ([2]; other: 51° C., […]): 1.4 µM
- Vmax ([2]; other: 51° C., […]): 97.45 nM/h
- Km ([2]; other: summary of Table 2): 3 µM
- Km ([3]; other: 37° C., 37.0 °C): 3.3 µM
- Vmax ([3]; other: 37° C., 37.0 °C): 606.3 nM/h
- Km ([3]; other: 51° C., […]): 2.3 µM
- Vmax ([3]; other: 51° C., […]): 348.8 nM/h
- Km ([3]; other: summary of Table 2): 3 µM
